Measured values: patent publication US9958461B2, “Detection of protein to protein interactions” (THE GOVERNING COUNCIL OF THE UNIVERSITY OF TORONTO, priority 2013, dated 2018)

B1: STAT1 (protein, UniProt P42224 2-750, looked up)
Signal transducer and …: SQWYELQQLDSKFLEQVHQLYDDSFPMEIRQYLAQWLEKQDWEHAANDVSFATIRFHDLLSQLDDQYSRFSLENNFLLQHNIRKSKRNLQDNFQEDPIQMSMIIYSCLKEERKILENAQRFNQAQSGNIQSTVMLDKQKELDSKVRNVKDKVMCIEHEIKSLEDLQDEYDFKCKTLQNREHETNGVAKSDQKQEQLLLKKMYLMLDNKRKEVVHKIIELLNVTELTQNALINDELVEWKRRQQSACIGGPPNACLDQLQNWFTIVAESLQQVRQQLKKLEELEQKYTYEHDPITKNKQVLWDRTFSLFQQLIQSSFVVERQPCMPTHPQRPLVLKTGVQFTVKLRLLVKLQELNYNLKVKVLFDKDVNERNTVKGFRKFNILGTHTKVMNMEESTNGSLAAEFRHLQLKEQKNAGTRTNEGPLIVTEELHSLSFETQLCQPGLVIDLETTSLPVVVISNVSQLPSGWASILWYNMLVAEPRNLSFFLTPPCARWAQLSEVLSWQFSSVTKRGLNVDQLNMLGEKLLGPNASPDGLIPWTRFCKENINDKNFPFWLWIESILELIKKHLLPLWNDGCIMGFISKERERALLKDQQPGTFLLRFSESSREGAITFTWVERSQNGGEPDFHAVEPYTKKELSAVTFPDIIRNYKVMAAENIPENPLKYLYPNIDKDHAFGKYYSRPKEAPEPMELDGPKGTGYIKTELISVSEVHPSRLQTTDNLLPMSPEEFDEVSRIVGSVEFDSMMNTV
B2: PTPN18 (protein, UniProt Q99952 1-460, looked up)
Tyrosine-protein phosphatase …: MSRSLDSARSFLERLEARGGREGAVLAGEFSDIQACSAAWKADGVCSTVAGSRPENVRKNRYKDVLPYDQTRVILSLLQEEGHSDYINGNFIRGVDGSLAYIATQGPLPHTLLDFWRLVWEFGVKVILMACREIENGRKRCERYWAQEQEPLQTGLFCITLIKEKWLNEDIMLRTLKVTFQKESRSVYQLQYMSWPDRGVPSSPDHMLAMVEEARRLQGSGPEPLCVHCSAGCGRTGVLCTVDYVRQLLLTQMIPPDFSLFDVVLKMRKQRPAAVQTEEQYRFLYHTVAQMFCSTLQNASPHYQNIKENCAPLYDDALFLRTPQALLAIPRPPGGVLRSISVPGSPGHAMADTYAVVQKRGAPAGAGSGTQTGTGTGTGARSAEEAPLYSKVTPRAQRPGAHAEDARGTLPGRVPADQSPAGSGAYEDVAGGAQTGGLGFNLRIGRPKGPRDPPAEWTRV
B3: LYN (protein, UniProt P07948 2-512, looked up)
Tyrosine-protein kinase Lyn: GCIKSKGKDSLSDDGVDLKTQPVRNTERTIYVRDPTSNKQQRPVPESQLLPGQRFQTKDPEEQGDIVVALYPYDGIHPDDLSFKKGEKMKVLEEHGEWWKAKSLLTKKEGFIPSNYVAKLNTLETEEWFFKDITRKDAERQLLAPGNSAGAFLIRESETLKGSFSLSVRDFDPVHGDVIKHYKIRSLDNGGYYISPRITFPCISDMIKHYQKQADGLCRRLEKACISPKPQKPWDKDAWEIPRESIKLVKRLGAGQFGEVWMGYYNNSTKVAVKTLKPGTMSVQAFLEEANLMKTLQHDKLVRLYAVVTREEPIYIITEYMAKGSLLDFLKSDEGGKVLLPKLIDFSAQIAEGMAYIERKNYIHRDLRAANVLVSESLMCKIADFGLARVIEDNEYTAREGAKFPIKWTAPEAINFGCFTIKSDVWSFGILLYEIVTYGKIPYPGRTNADVMTALSQGYRMPRVENCPDELYDIMKMCWKEKAEERPTFDYLQSVLDDFYTATEGQYQQQP
B4: SLA2 (protein, UniProt Q9H6Q3 2-261, looked up)
Src-like-adapter 2: GSLPSRRKSLPSPSLSSSVQGQGPVTMEAERSKATAVALGSFPAGGPAELSLRLGEPLTIVSEDGDWWTVLSEVSGREYNIPSVHVAKVSHGWLYEGLSREKAEELLLLPGNPGGAFLIRESQTRRGSYSLSVRLSRPASWDRIRHYRIHCLDNGWLYISPRLTFPSLQALVDHYSELADDICCLLKEPCVLQRAGPLPGKDIPLPVTVQRTPLNWKELDSSLLFSEAATGEESLLSEGLRESLSFYISLNDEAVSLDDA
B5: PTK2 (protein, UniProt Q05397 2-1052, looked up)
Focal adhesion kinase 1: AAAYLDPNLNHTPNSSTKTHLGTGMERSPGAMERVLKVFHYFESNSEPTTWASIIRHGDATDVRGIIQKIVDSHKVKHVACYGFRLSHLRSEEVHWLHVDMGVSSVREKYELAHPPEEWKYELRIRYLPKGFLNQFTEDKPTLNFFYQQVKSDYMLEIADQVDQEIALKLGCLEIRRSYWEMRGNALEKKSNYEVLEKDVGLKRFFPKSLLDSVKAKTLRKLIQQTFRQFANLNREESILKFFEILSPVYRFDKECFKCALGSSWIISVELAIGPEEGISYLTDKGCNPTHLADFTQVQTIQYSNSEDKDRKGMLQLKIAGAPEPLTVTAPSLTIAENMADLIDGYCRLVNGTSQSFIIRPQKEGERALPSIPKLANSEKQGMRTHAVSVSETDDYAEIIDEEDTYTMPSTRDYEIQRERIELGRCIGEGQFGDVHQGIYMSPENPALAVAIKTCKNCTSDSVREKFLQEALTMRQFDHPHIVKLIGVITENPVWIIMELCTLGELRSFLQVRKYSLDLASLILYAYQLSTALAYLESKRFVHRDIAARNVLVSSNDCVKLGDFGLSRYMEDSTYYKASKGKLPIKWMAPESINFRRFTSASDVWMFGVCMWEILMHGVKPFQGVKNNDVIGRIENGERLPMPPNCPPTLYSLMTKCWAYDPSRRPRFTELKAQLSTILEEEKAQQEERMRMESRRQATVSWDSGGSDEAPPKPSRPGYPSPRSSEGFYPSPQHMVQTNHYQVSGYPGSHGITAMAGSIYPGQASLLDQTDSWNHRPQEIAMWQPNVEDSTVLDLRGIGQVLPTHLMEERLIRQQQEMEEDQRWLEKEERFLKPDVRLSRGSIDREDGSLQGPIGNQHIYQPVGKPDPAAPPKKPPRPGAPGHLGSLASLSSPADSYNEGVKLQPQEISPPPTANLDRSNDKVYENVTGLVKAVIEMSSKIQPAPPEEYVPMVKEVGLALRTLLATVDETIPLLPASTHREIEMAQKLLNSDLGELINKMKLAQQYVMTSLQQEYKKQMLTAAHALAVDAKNLLDVIDQARLKMLGQTRPH
B6: TXN (protein, UniProt P10599 2-105, looked up)
Thioredoxin: VKQIESKTAFQEALDAAGDKLVVVDFSATWCGPCKMIKPFFHSLSEKYSNVIFLEVDVDDCQDVASECEVKCMPTFQFFKKGQKVGEFSGANKEKLEATINELV
B7: WASL (protein, UniProt O00401 2-505, looked up)
Actin nucleation-promoting …: SSVQQQPPPPRRVTNVGSLLLTPQENESLFTFLGKKCVTMSSAVVQLYAADRNCMWSKKCSGVACLVKDNPQRSYFLRIFDIKDGKLLWEQELYNNFVYNSPRGYFHTFAGDTCQVALNFANEEEAKKFRKAVTDLLGRRQRKSEKRRDPPNGPNLPMATVDIKNPEITTNRFYGPQVNNISHTKEKKKGKAKKKRLTKADIGTPSNFQHIGHVGWDPNTGFDLNNLDPELKNLFDMCGISEAQLKDRETSKVIYDFIEKTGGVEAVKNELRRQAPPPPPPSRGGPPPPPPPPHNSGPPPPPARGRGAPPPPPSRAPTAAPPPPPPSRPSVAVPPPPPNRMYPPPPPALPSSAPSGPPPPPPSVLGVGPVAPPPPPPPPPPPGPPPPPGLPSDGDHQVPTTAGNKAALLDQIREGAQLKKVEQNSRPVSCSGRDALLDQIRQGIQLKSVADGQESTPPTPAPTSGIVGALMEVMQKRSKAIHSSDEDEDEDDEEDFEDDDEWED
B8: BCAR3 (protein, UniProt O75815 2-825, looked up)
Breast cancer anti-estrogen …: AAGKFASLPRNMPVNHQFPLASSMDLLSSRSPLAEHRPDAYQDVSIHGTLPRKKKGPPPIRSCDDFSHMGTLPHSKSPRQNSPVTQDGIQESPWQDRHGETFTFRDPHLLDPTVEYVKFSKERHIMDRTPEKLKKELEEELLLSSEDLRSHAWYHGRIPRQVSENLVQRDGDFLVRDSLSSPGNFVLTCQWKNLAQHFKINRTVLRLSEAYSRVQYQFEMESFDSIPGLVRCYVGNRRPISQQSGAIIFQPINRTVPLRCLEEHYGTSPGQAREGSLTKGRPDVAKRLSLTMGGVQAREQNLPRGNLLRNKEKSGSQPACLDHMQDRRALSLKAHQSESYLPIGCKLPPQSSGVDTSPCPNSPVFRTGSEPALSPAVVRRVSSDARAGEALRGSDSQLCPKPPPKPCKVPFLKVPSSPSAWLNSEANYCELNPAFATGCGRGAKLPSCAQGSHTELLTAKQNEAPGPRNSGVNYLILDDDDRERPWEPAAAQMEKGQWDKGEFVTPLLETVSSFRPNEFESKFLPPENKPLETAMLKRAKELFTNNDPKVIAQHVLSMDCRVARILGVSEEMRRNMGVSSGLELITLPHGHQLRLDIIERHNTMAIGIAVDILGCTGTLEDRAATLSKIIQVAVELKDSMGDLYSFSALMKALEMPQITRLEKTWTALRHQYTQTAILYEKQLKPFSKLLHEGRESTCVPPNNVSVPLLMPLVTLMERQAVTFEGTDMWEKNDQSCEIMLNHLATARFMAEAADSYRMNAERILAGFQPDEEMNEICKTEFQMRLLWGSKGAQVNQTERYEKFNQILTALSRKLEPPPVKQAEL
B9: CRKL (protein, UniProt P46109 1-303, looked up)
Crk-like protein: MSSARFDSSDRSAWYMGPVSRQEAQTRLQGQRHGMFLVRDSSTCPGDYVLSVSENSRVSHYIINSLPNRRFKIGDQEFDHLPALLEFYKIHYLDTTTLIEPAPRYPSPPMGSVSAPNLPTAEDNLEYVRTLYDFPGNDAEDLPFKKGEILVIIEKPEEQWWSARNKDGRVGMIPVPYVEKLVRSSPHGKHGNRNSNSYGIPEPAHAYAQPQTTTPLPAVSGSPGAAITPLPSTQNGPVFAKAIQKRVPCAYDKTALALEVGDIVKVTRMNINGQWEGEVNGRKGLFPFTHVKIFDPQNPDENE
B10: MED28 (protein, UniProt Q9H204 1-178, looked up)
Mediator of RNA polymerase II …: MAAPLGGMFSGQPPGPPQAPPGLPGQASLLQAAPGAPRPSSSTLVDELESSFEACFASLVSQDYVNGTDQEEIRTGVDQCIQKFLDIARQTECFFLQKRLQLSVQKPEQVIKEDVSELRNELQRKDALVQKHLTKLRHWQQVLEDINVQHKKPADIPQGSLAYLEQASANIPAPLKPT

Tests used:
EGFR-Wt [1] = target: T1, EGFR-Wt (Homo sapiens, UniProt P00533); assay: MaMTH EGFR-interactor screen, lentiviral preys against EGFR-wildtype bait (interaction score); format: cell-based; details: MaMTH interaction score of prey with EGFR-Wt bait, mean
T1 construct: with the advantage of testing full-length integral membrane proteins; (GGGGS)2 linker-Cub (human ubiquitin aa 35-76)-GAL4(1-147)-mNFkB(364-550) (C); expressed in transfected cells
Procedure, shortened: (§1)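 Interaction score is the luciferase fold-change versus averaged negative controls (Fabp5, Pex19, Pex7, GABBR2), with >1 called interacting. Luciferase was measured 24 h after triplicate bait transfection. This followed single-copy prey transduction (MOI ~0.3-0.4) of GAL4UAS-luciferase HEK293T cells and ≥48 h puromycin selection.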

EGFR-Wt [2] = assay: as above; format: cell-based, human; details: ratio of EGFR-Wt mean to EGFR-L858R mean interaction score
Procedure, shortened: as §1

EGFR-L858R = target: T2, EGFR-L858R (Homo sapiens, UniProt P00533, L858R); assay: MaMTH EGFR-interactor screen, lentiviral preys against EGFR-L858R bait (interaction score); format: cell-based; details: MaMTH interaction score of prey with EGFR-L858R bait
T2 construct: with the advantage of testing full-length integral membrane proteins; (GGGGS)2 linker-Cub (human ubiquitin aa 35-76)-GAL4(1-147)-mNFkB(364-550) (C); expressed in transfected cells
Procedure, shortened: as §1

Row | Molecule | EGFR-Wt mean (EGFR-Wt [1]) | Wt/L858R (EGFR-Wt [2]) | EGFR-L858R mean (EGFR-L858R)
1 | B1 | 4.70 | 0.69 | 6.80
2 | B2 | 1.54 | 0.71 | 2.18
3 | B3 | 6.92 | 0.71 | 9.74
4 | B4 | 2.22 | 0.71 | 3.11
5 | B5 | 4.05 | 0.72 | 5.59
6 | B6 | 5.10 | 0.73 | 7.03
7 | B7 | 1.41 | 0.73 | 1.93
8 | B8 | 0.79 | 0.75 | 1.06
9 | B9 | 10.25 | 0.75 | 13.65
10 | B10 | 0.87 | 0.76 | 1.14
